Measurements taken from US20130323237A1 (Novartis, published 2013).

B1: MOR04496 Fab (Fab, V domains shown)
VH: QVQLVESGGGLVQPGGSLRLSCAASGFTFSSYAISWVRQAPGKGLEWVSSISYSGSSTYYADSVKGRFTISRDNSKNTLYLQMNSLRAEDTAVYYCARMEYWYHLLYMDYWGQGTLVTVSS
VL: DIVLTQSPATLSLSPGERATLSCRASQSIGDNYLAWYQQKPGQAPRLLIYDANNRATGVPARFSGSGSGTDFTLTISSLEPEDFATYYCQQYDDHPLTFGQGTKVEIKR
notes: carries two C-terminal tags (FLAG and 6xHis)
B2: MOR04832 Fab (Fab, V domains shown)
VH: QVQLVQSGAEVKKPGSSVKVSCKASGGTFSSYAISWVRQAPGQGLEWMGNIYPIFGYANYAQKFQGRVTITADESTSTAYMELSSLRSEDTAVYYCARYGQYGQHFSHGGMDVWGQGTLVTVSS
VL: DIQMTQSPSSLSASVGDRVTITCRASQDISISLTWYQQKPGKAPKLLIYGAFSLQSGVPSRFSGSGSGTDFTLTISSLQPEDFATYYCQQYYGTSATFGQGTKVEIKR
notes: as for B1
B3: MOR04497 Fab (Fab, V domains shown)
VH: QVQLVESGGGLVQPGGSLRLSCAASGFTFSNHALSWVRQAPGKGLEWVSGIQYDGSNTGYADSVKGRFTISRDNSKNTLYLQMNSLRAEDTAVYYCARYYGYSYMDYWGQGTLVTVSS
VL: DIELTQPPSVSVAPGQTARISCSGDNLGSKYVHWYQQKPGQAPVLVIYADNNRPSGIPERFSGSNSGNTATLTISGTQAEDEADYYCQSYDHMLQVFGGGTKLTVLG
notes: as for B1
B4: MOR04493 Fab (Fab, V domains shown)
VH: QVQLVQSGAEVKKPGSSVKVSCKASGGTFSSYAISWVRQAPGQGLEWMGGIIPDFGWANYAQKFQGRVTITADESTSTAYMELSSLRSEDTAVYYCARSGMFYSILFDYWGQGTLVTVSS
VL: DIQMTQSPSSLSASVGDRVTITCRASQDIYNYLNWYQQKPGKAPKLLIYGASSLQSGVPSRFSGSGSGTDFTLTISSLQPEDFAVYYCQQQNDYPLTFGQGTKVEIKR
notes: as for B1
B5: MOR04494 Fab (Fab, V domains shown)
VH: QVQLVESGGGLVQPGGSLRLSCAASGFTFSSYYMSWVRQAPGKGLEWVSNISYDSSDTYYADSVKGRFTISRDNSKNTLYLQMNSLRAEDTAVYYCARQQYFDHIDIWGQGTLVTVSS
VL: DIELTQPPSVSVAPGQTARISCGGDSLGGKYVYWYQQKPGQAPVLVIYGDSKRPSGIPERFSGSNSGNTATLTISGTQAEDEADYYCQSYTNALSTVFGGGTKLTVLG
notes: as for B1

biological target: T1, recombinant human TSLP (R&D Systems) (human, UniProt Q969D9 29-159); assay: SPR (Biacore), biotinylated recombinant human TSLP on SA-chip, Fab as analyte
T1 construct: also called hTSLP; human thymic stromal lymphopoietin
Procedure: A respective amount of biotinylated human serum albumin (HSA) was immobilized on the reference flow cell. […] The Fabs were applied in concentration series of 16-500 nM at a flow rate of 20 μl/min. Association phase was set to 60 s and dissociation phase to 120 s.

binding result	Binder
binds	B1
binds	B2
binds	B3
binds	B4
binds	B5
